Laboratory results published in article PMC11574045, “A cofactor-induced repressive type of transcription factor condensation can be induced by synthetic peptides to suppress tumorigenesis” (The EMBO Journal, 2024).

B1: TEAD4 (protein, UniProt Q15561 1-434, looked up)
Transcriptional enhancer …: MEGTAGTITSNEWSSPTSPEGSTASGGSQALDKPIDNDAEGVWSPDIEQSFQEALAIYPPCGRRKIILSDEGKMYGRNELIARYIKLRTGKTRTRKQVSSHIQVLARRKAREIQAKLKDQAAKDKALQSMAAMSSAQIISATAFHSSMALARGPGRPAVSGFWQGALPGQAGTSHDVKPFSQQTYAVQPPLPLPGFESPAGPAPSPSAPPAPPWQGRSVASSKLWMLEFSAFLEQQQDPDTYNKHLFVHIGQSSPSYSDPYLEAVDIRQIYDKFPEKKGGLKDLFERGPSNAFFLVKFWADLNTNIEDEGSSFYGVSSQYESPENMIITCSTKVCSFGKQVVEKVETEYARYENGHYSYRIHRSPLCEYMINFIHKLKHLPEKYMMNSVLENFTILQVVTNRDTQETLLCIAYVFEVSASEHGAQHHIYRLVKE
B2: RFXANK (protein)
chain: MELTQPAEDLIQTQQTPASELGDPEDPGEEAADGSDTVVLSLFPCTPEPVNPEPDASVSSPQAGSSLKHSTTLTNRQRGNEVSALPATLDSLSIHQLAAQGELDQLKEHLRKGDNLVNKPDERGFTPLIWASAFGEIETVRFLLEWGADPHILAKERESALSLASTGGYTDIVGLLLERDVDINIYDWNGGTPLLYAVRGNHVKCVEALLARGADLTTEADSGYTPMDLAVALGYRKVQQVIENHILKLFQSNLVPADPE

Tests used:
[1] = tested on: HGC-27 cells; assay: siRNA screening based on cell growth; design: species or system human; settings: Figure 2B source data; siRNA against the named gene; Z score based analysis
Experimental: For screening based on cell growth, HGC-27 cells (2000 per well) were seeded into a 96-well plate overnight. The individual siRNAs targeting 192 BioID-identified genes were then added into each well to a final concentration of 25 nM. After subsequent incubation for 48 h, the cells were analyzed using an ATP-based CellCounting-Lite^TM 2.0 reagent (Vazyme, Nanjing, China) according to the manufacturer’s instructions. The intracellular ATP contents were measured using an EnSight™ Multimode Microplate Reader (Perkin Elmer).

[2] = tested on: HEK293FT cells transfected with TF library; assay: Screening of TF condensates based on fluorescent puncta; type: cell-based; settings: Figure 1B numerical data; TF library screen, one value per transcriptional factor
Procedure, shortened: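 Cells were seeded onto plasmid/PEI-loaded wells (plasmid 1.6 μg/ml final) and grown 60 h. Medium with or without glucose followed for 12 h. Fixed, permeabilized cells were stained against Flag or GAL4 tags, and condensate puncta were quantified from 50 random fields per well.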

[3] = tested on: GFP-TEAD4 condensates; assay: siRNA screening based on TEAD4 condensate; type: cell-based; settings: Figure 2B source data; siRNA against the named gene; Z score based analysis
Experimental: siRNA reagents were obtained from the Dharmacon Human ON-TARGETplus siRNA Smartpool Library (Thermo) as described previously (Tang et al, [2020]). […] Lipofectamine RNAiMAX reagent (Thermo) at a volume of 0.05 μl per well was then added to the siRNA-loaded plates. Subsequently, cells expressing GFP-TEAD4 were seeded into the plate at 2000 cells per well. After subsequent transfection for 48 h, the cells were fixed with 4% PFA at room temperature for 30 min. DAPI was used to identify individual nuclei. The plates were kept at 4 °C in the dark before being analyzed using the Opera system. Twenty focus fields per well were scanned and analyzed. Scrambled siRNA was used as an internal reference on each plate.

[4] = tested on: GFP-TEAD4 condensates in HEK293FT cells; assay: GFP-TEAD4 condensate imaging, condensed fraction in cells; type: cell-based; settings: Figure 2D source data, GFP-TEAD4 condensates with co-expressed cofactor, with or without 1,6-Hex, single measurement

| Molecule | Z score of cell growth [1] | Z score of condensed fraction [2] | Z score of condensed fraction [3] | Condensed fraction ([4]; replicate 1 of 9) | Condensed fraction ([4]; replicate 2 of 9) | Condensed fraction ([4]; replicate 3 of 9) | Condensed fraction ([4]; replicate 4 of 9) | Condensed fraction ([4]; replicate 5 of 9) | Condensed fraction ([4]; replicate 6 of 9) | Condensed fraction ([4]; replicate 7 of 9) | Condensed fraction ([4]; replicate 8 of 9) | Condensed fraction ([4]; replicate 9 of 9) |
| --- | --- | --- | --- | --- | --- | --- | --- | --- | --- | --- | --- | --- |
| B1 | 0.6975 | 3.255 | 1.0247 | – | – | – | – | – | – | – | – | – |
| B2 | 3.094 | – | -3.941 | 37.5428% | 33.3337% | 44.4467% | 47.0652% | 51.3041% | 37.5405% | 26.519% | 36.7045% | 37.5001% |
